Assay results reported in CN116789813A.

Biological target: 突变型金黄色葡萄球菌α-溶血素(mHla), Hla(H35L) (Staphylococcus aureus (strain MRSA 252))
Assay: ELISA, mHla coated at 2μg/mL, anti-human IgG Fab-HRP detection

B1: 全人源Hla单克隆抗体Hla-38 (antibody, V domains shown)
VH: QVQLLESGGGVVQPGRSLRLSCIVSGFDLNSFAMHWVRQPPGKGLEWVAVIWHDGSERFYAASVKGRFTISRDTSRNTLFLQMNSLRVEDTAVYYCAKSGDYYENSGYFGSWGQGALVTVSS
VL: ELVLTQSPATLSVSPGERATLSCRASQSVGNDLAWYQQKPGQAPRLLIYGASTRATGIPARFSGSGFGTEFTLTISSLQSEDFAVYYCQQYNNWWTFGQGTKVDIK
EC50: 0.849 µg/mL
